In patent publication US20030114379A1 (Human Genome Sciences, published 2003):

Columns and labels:
[1] = biological target: cell surface receptor for MIP-1α (on human monocytes) (human); test: cell-based or functional assay
[2] = biological target: the molecule itself; test: sedimentation equilibrium analytical ultracentrifugation for self-association, at several pH values and ionic strengths (Table 10, State 'M')
Protocol: Sedimentation Equilibrium. Analytical ultracentrifugation experiments were performed on a Beckman model XL-A ultracentrifuge at 20° C. at rotor speeds 23,000, 28,000 and 40,000 rpm. Experiments were carried out at two different starting concentrations in different buffers and ionic strength to study their effect on dimerization (Table 10). Absorbance was measured at 280 nm and the data was collected as an average of five successive radial scans using a 0.003 cm step size. The data was fitted to the following equation: […]
Sedimentation equilibrium. Chemokine ability to associate is dependent on solution conditions such as pH and ionic strength. The association properties of the MPIF-1 and the full length MPIF-1 were studied using ultracentrifugation methods at different pH and ionic strengths. […] The monomeric state of MPIF-1 is consistent with the NMR structure and also from the calculation of the correlation time from ¹⁵N dynamics.

Row | intracellular calcium mobilization in human monocytes, activity relative to wild type MPIF-1 [1] [fold] | Binder | binding result [2]
1 | ~2 | MPIF-1 Mutant-1 (the 'mature' MPIF-1 for E. coli expression, wild type with an N-terminal methionine) (ligand) MRVTKDAETEFMMSKLPLENPVLLDRFHATSADCCISYTPRSIPCSLLESYFETNSECSKPGVIFLTKKGRRFCANPSDKQVQVCMRMLKLDTRIKTRKN | –
2 | – | MPIF-1Δ23 (truncated human MPIF-1 lacking the 23 N-terminal amino acids of the mature protein, with an N-terminal Met; 77 amino acids, 8.85 kDa) (ligand, Delta 23) MDRFHATSADCCISYTPRSIPCSLLESYFETNSECSKPGVIFLTKKGRRFCANPSDKQVQVCMRMLKLDTRIKTRKN | no binding
